The results in this text go back to paper doi:10.1101/2023.07.25.550521.

Experiment [1] has as its target MADD (DENN/MADD, RAB3-GEP) (UniProt Q8WXG6). Briefly: GFP-Trap co-IP, HA blot. The conditions noted are these: reference: wild type; sites T86.
For a further experiment, the target named is RAB-GDI1 (UniProt P31150). Nature of the experiment: GFP-Trap co-IP, RAB-GDI1 blot. The conditions noted are these: reference: wild type; sites T86.

On to RAB3A (from UniProt P20336) T86A, for which the “binding against the reference” value (in experiment [1]; in the experiment with RAB-GDI1) was “stronger” throughout.
